Sequences and labels used below:
B1: LINE1-mini (parent)
chain: GGCAGAGCUCAACACAGCGUGGCAAAGUGGCUGUGGCUAGACUGCC

In this data set the parent is B1. As to the kind of experiment: self-cleavage, relative activity (ratio to wild type); higher = more cleavage; in vitro, sequencing; the parent is a self-cleaving ribozyme.
With C13A A14U, the self-cleavage is 0.12.
Turning to C13A A14G, the self-cleavage amounted to 0.08.
On to C13A A14C, for which the self-cleavage was 0.08.
As to C13A G21A, the self-cleavage was determined as 0.23.
With C13A G21C, the self-cleavage was 0.14.
C13A G21U: the self-cleavage amounted to 0.23.
For the variant C13A U34G, the self-cleavage turned out to be 0.03.
The same measure for C13A U34A: 0.07; for C13A U34C: 0.06.
With A12U U32G, the self-cleavage came to 0.08.
As for A12U U32C, the self-cleavage is 0.07.
For the variant A12U U32A, the self-cleavage came out at 0.04.
The same measure for A12U A24C: 0.24.
Regarding A12U A24G, the self-cleavage was 0.39.
For the variant A12U A24U, the self-cleavage turned out to be 0.31.
For A12G G35U, the self-cleavage came out at 0.04.
In the case of A12G G35C it was 0.05; in that of A12G G35A, 0.02; in that of C13G A25U, 0.44.
Consider C13G A25G, for which the self-cleavage was 0.11.
Take C13G A25C: the self-cleavage was found to be 0.18.
As to C13G G22C, the self-cleavage amounted to 0.05.
As for C13G G22U, the self-cleavage worked out at 0.18.
With C13G G22A, the self-cleavage came out at 0.21.
As for A12U A14G, the self-cleavage was determined as 0.18.
In the case of A12U A14U, the self-cleavage was found to be 0.18.
In the case of A12U A14C it was 0.05; in that of A12G C45U, 0.05; in that of A12G C45G, 0.06.
The same measure for A12G C45A: 0.1; for C13G G19A: 0.2; for C13G G19C: 0.06.
Regarding C13G G19U, the self-cleavage is 0.11.
In the case of A12U G35A it was 0.19; in that of A12U G35U, 0.13; in that of A12U G35C, 0.05.
In the case of C13G A41U, the self-cleavage was 0.17.
The same measure for C13G A41G: 0.09; for C13G A41C: 0.04.
As for A12G U38C, the self-cleavage was found to be 0.04.
For A12G U38A, the self-cleavage worked out at 0.06.
In the case of A12G U38G it was 0.02; in that of C13A G27U, 0.08; in that of C13A G27A, 0.18.
C13A G27C: the self-cleavage amounted to 0.1.
In the case of C13G C18U it was 0.09; in that of C13G C18A, 0.09; in that of C13G C18G, 0.07.
For A12U G36C, the self-cleavage was 0.04.
On to A12U G36A, for which the self-cleavage was found to be 0.04.
With A12U G36U, the self-cleavage amounted to 0.16.
As for C13A G33C, the self-cleavage stood at 0.06.
In the case of C13A G33A it was 0.08; in that of C13A G33U, 0.05; in that of A12U G40C, 0.06.
With A12U G40A, the self-cleavage is 0.21.
On to A12U G40U, for which the self-cleavage worked out at 0.17.
Consider C13A G17C, for which the self-cleavage came out at 0.1.
In the case of C13A G17U, the self-cleavage was determined as 0.11.
C13A G17A: the self-cleavage was found to be 0.1.
As to A12U C46A, the self-cleavage stood at 0.27.
Turning to A12U C46U, the self-cleavage stood at 0.27.
Regarding A12U C46G, the self-cleavage stood at 0.45.
In the case of C13A U43C, the self-cleavage came to 0.08.
Regarding C13A U43A, the self-cleavage worked out at 0.21.
C13A U43G: the self-cleavage is 0.18.
A12U G22A: the self-cleavage was determined as 0.4.
For A12U G22U, the self-cleavage is 0.29.
Consider A12U G22C, for which the self-cleavage was 0.26.
Take C13A C31G: the self-cleavage worked out at 0.06.
The same measure for C13A C31U: 0.09; for C13A C31A: 0.06.
On to C13G C15G, for which the self-cleavage was 0.09.
On to C13G C15A, for which the self-cleavage came out at 0.1.
The same measure for C13G C15U: 0.15; for A12G G40U: 0.06; for A12G G40A: 0.06.
In the case of A12G G40C, the self-cleavage came to 0.1.
With A12G C31U, the self-cleavage was found to be 0.05.
On to A12U C18A, for which the self-cleavage is 0.18.
In the case of A12U C18G it was 0.17.
The same measure for A12U C18U: 0.53.
Consider C13A C18A, for which the self-cleavage was 0.09.
The same measure for C13A C18U: 0.09.
For the variant C13A C18G, the self-cleavage is 0.12.
As to A12G G22C, the self-cleavage came to 0.04.
For the variant A12G G22U, the self-cleavage stood at 0.02.
Consider A12G G22A, for which the self-cleavage came out at 0.03.
The same measure for A12U G27C: 0.22; for A12U G27A: 0.3; for A12U G27U: 0.23.
On to A12U G29A, for which the self-cleavage stood at 0.31.
As for A12U G29C, the self-cleavage amounted to 0.05.
Regarding A12U G29U, the self-cleavage was determined as 0.37.
Turning to A12G U20G, the self-cleavage stood at 0.02.
As to A12G U20A, the self-cleavage turned out to be 0.04.
The same measure for A12G U20C: 0.08.
C13A A26U: the self-cleavage was determined as 0.11.
On to C13A A26C, for which the self-cleavage turned out to be 0.18.
The same measure for C13A A26G: 0.12.
In the case of A12U U20G, the self-cleavage turned out to be 0.09.
Turning to A12U U20A, the self-cleavage is 0.12.
In the case of A12U U20C, the self-cleavage was determined as 0.25.
Take A12G U32A: the self-cleavage was determined as 0.15.
In the case of A12G U32G, the self-cleavage amounted to 0.49.
On to A12G U32C, for which the self-cleavage was 0.14.
In the case of A12G G29A it was 0.03; in that of A12G G29U, 0.02; in that of A12G G29C, 0.02.
Take A12G G44U: the self-cleavage turned out to be 0.09.
As for A12G G44C, the self-cleavage was determined as 0.03.
Consider A12G G44A, for which the self-cleavage was found to be 0.04.
In the case of C13A G36U, the self-cleavage was found to be 0.12.
As for C13A G36A, the self-cleavage turned out to be 0.23.
C13A G36C: the self-cleavage was determined as 0.06.
On to A12U C15G, for which the self-cleavage came to 0.06.
In the case of A12U C15U it was 0.1; in that of A12U C15A, 0.09.
For C13A C15U, the self-cleavage stood at 0.12.
In the case of C13A C15G, the self-cleavage was 0.08.
For C13A C15A, the self-cleavage came to 0.08.
Regarding A12U G30A, the self-cleavage worked out at 0.48.
In the case of A12U G30C, the self-cleavage amounted to 0.46.
For A12U G30U, the self-cleavage was 0.58.
For C13G C31A, the self-cleavage is 0.16.
For the variant C13G C31U, the self-cleavage stood at 0.13.
In the case of C13G C31G it was 0.05.
For A12U G21C, the self-cleavage is 0.21.
Regarding A12U G21A, the self-cleavage was found to be 0.52.
For A12U G21U, the self-cleavage is 0.34.
Take A12U U43G: the self-cleavage came to 0.12.
Regarding A12U U43C, the self-cleavage came to 0.14.
On to A12U U43A, for which the self-cleavage came out at 0.04.
In the case of A12G G33A it was 0.07.
Consider A12G G33U, for which the self-cleavage stood at 0.12.
On to A12G G33C, for which the self-cleavage stood at 0.03.
Turning to C13G G17U, the self-cleavage was 0.06.
On to C13G G17A, for which the self-cleavage is 0.06.
C13G G17C: the self-cleavage is 0.03.
As for A12G G21A, the self-cleavage amounted to 0.05.
Regarding A12G G21U, the self-cleavage is 0.03.
The same measure for A12G G21C: 0.01; for A12U A39C: 0.11; for A12U A39U: 0.16.
Consider A12U A39G, for which the self-cleavage turned out to be 0.08.
In the case of A12U U34A it was 0.03; in that of A12U U34C, 0.03.
Take A12U U34G: the self-cleavage came to 0.04.
The same measure for C13A G35U: 1.13.
The same measure for C13A G35A: 0.15; for C13A G35C: 0.07.
In the case of C13G G29C, the self-cleavage amounted to 0.11.
Regarding C13G G29U, the self-cleavage is 0.33.
C13G G29A: the self-cleavage stood at 0.19.
In the case of A12G G19A it was 0.17.
In the case of A12G G19U, the self-cleavage was 0.02.
As to A12G G19C, the self-cleavage worked out at 0.02.
For the variant A12U A41G, the self-cleavage came to 0.09.
Take A12U A41U: the self-cleavage stood at 0.18.
A12U A41C: the self-cleavage was 0.04.
A12U C31A: the self-cleavage came to 0.04.
In the case of A12U C31U it was 0.09.
In the case of A12U C31G it was 0.04; in that of C13A G44A, 0.09.
On to C13A G44U, for which the self-cleavage was determined as 0.12.
With C13A G44C, the self-cleavage was 0.07.
The same measure for A12U G33U: 0.04.

The values are drawn from the RNAGym collection of RNA variant scans (doi:10.7554/elife.90254).
